Results published in patent publication US8034769.

Key:
CD4 = CD4 (UniProt P01730); assay: SPR, BIACORE 2000, CD4 immobilized on C1 chip
HIV-GP120 (HIV-1) = assay: SPR, BIACORE 2000, HIV-GP120 immobilized on C1 chip

Chain of oxidized antithrombin III (P01008 33-464): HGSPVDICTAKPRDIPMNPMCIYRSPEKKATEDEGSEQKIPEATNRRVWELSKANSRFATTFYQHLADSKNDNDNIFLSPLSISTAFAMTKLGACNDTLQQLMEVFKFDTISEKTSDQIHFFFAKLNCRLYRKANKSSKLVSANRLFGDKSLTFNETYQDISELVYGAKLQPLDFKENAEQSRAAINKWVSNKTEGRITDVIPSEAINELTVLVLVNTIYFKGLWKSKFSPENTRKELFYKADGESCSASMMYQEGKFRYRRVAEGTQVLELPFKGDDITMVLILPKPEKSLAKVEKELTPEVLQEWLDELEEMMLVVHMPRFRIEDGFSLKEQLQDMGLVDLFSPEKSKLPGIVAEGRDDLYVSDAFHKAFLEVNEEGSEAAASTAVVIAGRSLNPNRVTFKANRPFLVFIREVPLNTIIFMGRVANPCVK

For oxidized antithrombin III, the Kd (CD4) was 1.63 nM, the kon (CD4) was 713000 M⁻¹ s⁻¹ and the Kd (HIV-GP120 (HIV-1)) was 0.701 nM. It also gave a kon (HIV-GP120 (HIV-1)) of 638000 M⁻¹ s⁻¹.
